± gives the uncertainty stated by the source.
test: amyloid nucleation score (Sup35N fusion, yeast selection) (log enrichment); library NNK2; higher = more nucleation; inactive = no reads after selection
Method in brief: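 Sup35N was fused to peptides of 20 random codons and expressed in psi-negative yeast, which were induced with 100 μM copper sulfate for 24 hours and then grown on medium lacking adenine and uracil for 7 days at 30°C. Plasmid inserts from input and output were sequenced on Illumina. The nucleation score is the DiMSum log enrichment of output over input reads, centred on the mode score of non-aggregating sequences. Sequences with under 100 input reads were left out, and random libraries had three technical output replicates.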

Substance	amyloid nucleation score
GVGSCTRQLWRISRSTPLKL	2.65 ± 0.069
GVHISRVVCQN	0.265 ± 1.1
GVHYEKEGVRTSVFSDLSWE	-0.021 ± 0.3
GVPALGFGLAGLTVACFAEE	-0.097 ± 0.34
GVPDCLLCVNSIYQGSLSFG	5.24 ± 0.09
GVPESGIFLRAHY	inactive
GVSFSDYLSACCLDAGVSGY	0.773 ± 0.23
GVTSRYTDSVSCGYPDSMML	0.594 ± 0.45
GVVEYRNFADSIVYGSRKFK	-0.685 ± 0.76
GVWSITNRFQEIVGNCLCVR	0.576 ± 0.16
GWAIPFADIEHCHVLLRISV	0.914 ± 0.46
GWLHMYY	-0.268 ± 0.36
GWRCSNPPASIKWCATLYSV	2.08 ± 0.2
GWRLTRDRVG	1.31 ± 0.18
GWSYTEVYFMIASCYII	1.16 ± 0.29
GWVKDDWDFTLMRPRFVGRG	-0.143 ± 0.76
GYDVERDNFDCVVTKDELFW	-0.427 ± 0.21
GYIAYATVWGLQDNGSRSIA	-0.637 ± 0.25
GYIGGVSWNISVVVCSS	2.71 ± 0.11
GYIYPNRIHNLYVGTMSVTV	5.43 ± 0.093
GYLGMWVKTCCQWTGERSDM	4.66 ± 0.057
GYSVH	-0.632 ± 1.1

Substance	amyloid nucleation score
HAGVMLSFNIVVPNFTYSKE	8.448 ± 0.051
HAKPDNLLFLTNGEPRTIIR	-2.15 ± 1.1
HAMPVYRAEFTLISTIL	0.268 ± 0.32
HAVDTHFADRGSLALKYSKC	1.19 ± 0.59
HCLEMGCGLYNAR	9.476 ± 0.071
HCNLPDWVHGIYMSKS	0.127 ± 0.74
HDKVCTSLRVVDQCLRPGH	0.608 ± 0.38
HDRWNWGDCFVIDHALLLMG	0.393 ± 0.31
HDTLIMFTYKVVVLLASERF	-0.549 ± 0.63
HEPGLPVRSCNVGRHSLSIL	0.522 ± 0.42
HESVHTTHFMAFYC	0.124 ± 0.61
HFDEPFFCCAGMHAH	6.8 ± 0.056
HFENLTHYTIVSTFFSLGVP	inactive
HFIKKGDYNKTTKYSPCNEL	-0.941 ± 0.45
HFILAIFLYCSIWIFEFFSL	-1.81 ± 1
HFKWNYYSYSVWEWVFEQLH	-0.36 ± 0.63
HFNLCTQNMSNGYRDCRHT	4.68 ± 0.11
HFYHLDTSHSGWDLKSSY	4.68 ± 0.075
HGGQRMCAGCV	0.865 ± 0.31
HGGRKG	1.42 ± 0.31
HGICRWL	0.208 ± 0.25
HGLLTKLWRPFMHGSV	0.203 ± 0.31

Substance	amyloid nucleation score
HGLTYIGIKCTYIKRVTWVR	0.389 ± 0.57
HHRMSYHY	1.72 ± 0.28
HIFCRLRLAGNRLRSCLCNF	-1.16 ± 1.1
HIIGLIYQKGTSWTA	4.85 ± 0.073
HINMIGWEFSVGYGWQ	4.9 ± 0.061
HIVEDLRVSAFTFSIKFISE	3.33 ± 0.099
HIVIGSFD	inactive
HIWRHDRVLLGSSNTKYMCG	0.759 ± 0.8
HIYRKM	0.151 ± 0.2
HLIAFLSAYFYYVMLARMYF	-1.87 ± 1.1
HLLPWMRVLYTYVCSNIQMF	-0.45 ± 0.36
HLNCISRGPMWLNDRMCQCP	1.76 ± 0.12
HLPFMHPRPANLSHNKTSVS	-0.766 ± 0.4
HLWFEDAQFAIAKFKCGGKR	6.16 ± 0.086
HMARYKIMSVLEIFHYMNRL	3.16 ± 0.16
HMGLLFKWAYTYRIAWGKLR	-0.451 ± 0.79
HMSRTPQAVRTSHPRVKNRI	-0.026 ± 0.26
HMTSS	-0.495 ± 0.33
HNAEANNVS	-0.492 ± 1.1
HNGVRRHMSNVSKILHSYF	0.02 ± 1
HNLQECSPVGPGTAFFCGSW	-0.243 ± 1.1
HNLWCDISLFGHIYRGRGTM	7.21 ± 0.08

Substance	amyloid nucleation score
HNMPARKYINSLMTFHVRWP	-0.321 ± 0.79
HNNCNRFCQSIVLH	6.34 ± 0.078
HNPLS	inactive
HNYGNPWE	3 ± 0.12
HNYVINESFFFLVVVYVDAG	7.6 ± 0.037
HQRLTRVLYWKVDIGQVCGI	4.99 ± 0.065
HRFIILNIVAFE	0.59 ± 0.28
HRLVLDIGDQIWSKA	0.35 ± 0.56
HRMNGFDLLMLVCKKCIDFC	inactive
HRSMPIRYWVVTIWYGRSDS	0.569 ± 0.41
HRSNFVVKLAASGSFTTGCR	0.376 ± 0.29
HSGLSGTILGWLIFKVEGEE	0.007 ± 0.42
HSHVRLWSLRFDAHPNWHDK	1.15 ± 0.27
HSICSSRNTVIFMSENFRNR	4.99 ± 0.057
HSQRNP	inactive
HSRQCFTHFGYFTGLGRVRV	2.18 ± 0.1
HSRRGGFRKYSSTLARPASD	-0.799 ± 0.49
HSSCIVVEAFSQGVVHNLFV	-0.567 ± 1.1
HSSEIL	-0.006 ± 0.65
HSVFNSMRRENLVNNNTLNG	inactive

From the supplement of paper PMC12042874
